Series [1] in a line: Activity to degrade phosphoric acid swollen cellulose. It is filed as biochemical. To be noted: 1% phosphoric acid swollen cellulose, pH 5.2, enzyme 0.5 μM, 1 hour, 50° C.; glucose generated by each parent endoglucanase = 100%. Here is the method: The term “identity” refers to the percentage of amino acid residues identical to and amino acid residues analogous to the other amino acid residues in all the amino acid residues overlapped when an optimum alignment is performed by introducing gaps or no gaps into two amino acid sequences and then aligning the two amino acid sequences. Such an identity can be found using a method known by persons skilled in the art, sequence analysis software, and the like (a known algorithm such as BLAST or FASTA). The term “endoglucanase activity” is as defined above and can be determined by adding an enzyme solution to a substrate solution of phosphoric acid swollen cellulose that has been dissolved in 50 mM acetic acid-sodium acetate buffer (pH 5.2) or the like, performing 1 hour of reaction at 30° C. to 85° C., stopping the reaction by changing the pH if necessary, and then determining the concentration of glucose in the reaction solution using a glucose determination kit, for example.
The mutants obtained in Comparative Example 1 were compared in terms of activity by a technique similar to that in Example 3. The concentration (g/L) of glucose generated by each parent endoglucanase under the above reaction conditions was determined to be 100%.

Series [2] can be described thus: Inhibition experiment with vanillin: degradation of phosphoric acid swollen cellulose. It is filed as biochemical. To be noted: enzyme 0.5 μM, 1 hour, 50° C., parent at 0 mM = 100%.
Procedure: (§6) This substance was diluted using buffer and water to obtain a 2 wt % mixture so that the final concentration of sodium acetate was 50 mM (pH 5.2). This was designated as phosphoric acid swollen cellulose and used for the following examples.
The activity of the wild-type and the mutant endoglucanases to degrade phosphoric acid swollen cellulose in the presence of vanillin was measured. 1% phosphoric acid swollen cellulose/50 mM acetate buffer (pH 5.2) was used as a substrate. Vanillin (Sigma Aldrich) was added at final concentrations of 0, 5, 10, and 15 mM. The enzymes prepared in Reference Example 1 and Example 2 were added at a final concentration of 0.5 μM, followed by 1 hour of enzymatic reaction at 50° C.
A short description of series [3]: Inhibition experiment with ferulic acid: degradation of phosphoric acid swollen cellulose. To be noted: enzyme 0.5 μM, 1 hour, 50° C., parent at 0 mM = 100%. In kind it is biochemical.
Procedure: as §6
The activity of the wild-type and the mutant endoglucanases to degrade phosphoric acid swollen cellulose was measured in the presence of ferulic acid. 1% phosphoric acid swollen cellulose/50 mM acetate buffer (pH 5.2) was used as a substrate. Ferulic acid (Sigma Aldrich) was added at final concentrations of 0, 5, 10, and 15 mM. The enzymes prepared in Reference Example 1 and Example 2 were each added at a final concentration of 0.5 μM, followed by 1 hour of enzymatic reaction at 50° C.
Series [4] in a line: Saccharification of lignocellulose 1 with Celluclast and endoglucanase. It is filed as biochemical, Rice straw. The note with it: 5 wt % Lignocellulose 1, pH 5.2, 50° C., 24 hours; 1.0 mg/mL cellulase + 0.1 mg/mL endoglucanase. Here is the method:
(§1) Rice straw was used as cellulose. The cellulose was added to a small reactor (Taiatsu Techno Corporation, TVS-N2 (30 ml)), and then cooled with liquid nitrogen. An ammonia gas was fed to the reactor, thereby completely immersing the sample in the liquid ammonia. The reactor was closed using its lid, and then left to stand at room temperature for 15 minutes. Subsequently, treatment was performed for 1 hour in an oil bath at 150° C. After treatment, the reactor was removed from the oil bath, an ammonia gas leak was immediately performed within a draft chamber. The reactor was vacuumed using a vacuum pump to 10 Pa for drying. The resultant was used as lignocellulose 1 in the following examples.
(§2) The changes in the amount of glucose generated when the enzyme composition had been caused to act on lignocellulose substrates were compared. The substrates were prepared by suspending 5 wt % lignocelluloses (1 to 3) (prepared in Reference Example 3) in 50 mM acetate buffer (pH5.2). Reactions were performed at 50° C. for 24 hours. The concentrations of the generated glucose were measured after adequate sampling. As a filamentous bacterium-derived cellulase mixture, commercially available Trichoderma reesei-derived cellulase (Celluclast, Sigma) was used. As endoglucanases, the mutant endoglucanases prepared in Example 2 and the wild-type endoglucanases prepared in Reference Example 1 were separately used. The following quantities of enzymes were added: 1.0 mg/mL cellulase, and 0.1 mg/mL endoglucanase (in an amount one tenth that of the cellulase).

Series [5] is described as follows: Saccharification of lignocellulose 2 with Celluclast and endoglucanase. It is filed as biochemical, Rice straw. To be noted: 5 wt % Lignocellulose 2, pH 5.2, 50° C., 24 hours; 1.0 mg/mL cellulase + 0.1 mg/mL endoglucanase. Here is the method: (§3) Rice straw was used as cellulose. Cellulose was immersed in a 1% aqueous sulfuric acid solution, and then autoclaved for 30 minutes at 150° C. (Nitto Koatsu Co. Ltd.). After treatment, the resultant was subjected to solid-liquid separation into an aqueous sulfuric acid solution (hereinafter, referred to as “dilute-sulfuric-acid-treated solution”) and cellulose treated with sulfuric acid. Next, the cellulose treated with sulfuric acid was mixed and agitated with the dilute-sulfuric-acid-treated solution so that the solid content concentration was 10 wt %. Then the mixture was adjusted to around pH 5 using sodium hydroxide. The resultant was used as lignocellulose 2 for the following examples.
as §2

Series [6] can be described thus: Saccharification of lignocellulose 3 with Celluclast and endoglucanase. It is filed as biochemical, Rice straw. To be noted: 5 wt % Lignocellulose 3, pH 5.2, 50° C., 24 hours; 1.0 mg/mL cellulase + 0.1 mg/mL endoglucanase. Here is the method: (§4) Rice straw was used as cellulose. The cellulose was immersed in water, and then autoclaved with agitation at 180° C. for 20 minutes (Nitto Koatsu Co. Ltd.). Pressure at this time was 10 MPa. After treatment, a solution component (hereinafter, referred to as “hydrothermally treated solution”) and the treated biomass component were subjected to solid-liquid separation by centrifugation (3000 G). The thus treated biomass component was used as lignocellulose 3 for the following examples.
as §2

A short description of series [7]: Saccharification of lignocellulose 1 with Trichoderma reesei culture solution and endoglucanase. In kind it is biochemical, Rice straw. To be noted: Lignocellulose 1, 24 hours; cellulase 1.0 mg/mL + endoglucanase 0.1 mg/mL + β-glucosidase (Novozyme 188) 0.01 mg/mL. Here is the method:
as §1, §2
(§5) Lignocelluloses (1-3) prepared in Reference Example 3 were used as substrates. The Trichoderma reesei culture solution prepared in Reference Example 4 was used as a filamentous bacterium-derived cellulase mixture. Lignocelluloses (1-3) were hydrolyzed in a manner similar to that in Example 7, except for the quantities of the enzymes added: cellulase (1.0 mg/mL); endoglucanase (0.1 mg/mL (in an amount one tenth that of the cellulase); and β-glucosidase (Novozyme 188) (0.01 mg/mL (in an amount one hundredth that of the cellulase).

A short description of series [8]: Saccharification of lignocellulose 2 with Trichoderma reesei culture solution and endoglucanase. It is filed as biochemical, Rice straw. To be noted: Lignocellulose 2, 24 hours; cellulase 1.0 mg/mL + endoglucanase 0.1 mg/mL + β-glucosidase (Novozyme 188) 0.01 mg/mL. The protocol:
as §3, §2, §5

Series [9] is described as follows: Saccharification of lignocellulose 3 with Trichoderma reesei culture solution and endoglucanase. The note with it: Lignocellulose 3, 24 hours; cellulase 1.0 mg/mL + endoglucanase 0.1 mg/mL + β-glucosidase (Novozyme 188) 0.01 mg/mL. It is filed as biochemical, Rice straw. Here is the method: as §4, §2, §5

B1: EGPa Wild-type: Pyrococcus abyssi-derived endoglucanase, SEQ ID NO: 25, parent endoglucanase (protein)
chain: MEIKLFCVFIVFIILFSPFVIALSYPDVNYTAENGIIFVQNVTTGEKKPLYLHGVSWFGFELKDHVVYGLDKRNWKDILKDVKRLGFNAIRLPFCSESIRPDTRPSPERINYELNPDLKNLTSLEIMEKIIEYANSIGLYILLDYHRIGCEEIEPLWYTENYSEEQYIKDWIFLAKRFGKYPNVIGADIKNEPHGEAGWGTGDERDFRLFAEKVGREILKVAPHWLIFVEGTQYTHVPNIDEIIEKKGWWTFWGENLMGVKDYPVRLPRGKVVYSPHVYGPSVYMMDYFKSPDFPNNMPIIWETHFGYLTDLNYTLVIGEWGGNYEGLDKVWQDAFVKWLIKKKIYNFFYWCLNPESGDTGGIFLDDWKTVNWEKMRVIYRLIKAANPEFEEPLYIILKTNATTSILGVGERIRIYWYTNGKVIDSNFAHSSEGEMNITVTKSMTLYIIVKKGNQTLRKELKLYVIGGNYGSNISTTQLVTPKKGGERISTSLKLAISLLFILLFVWYLLREKH
modifications: Pyrococcus abyssi EGPa
On to B1, for which the Relative activity in series [1] turned out to be 100%. Moreover, the “Relative activity to degrade phosphoric acid swollen cellulose” value is listed as 100% in series [2] (vanillin 0 mM); 40% in series [2] (vanillin 5 mM); 40% in series [2] (vanillin 10 mM); 40% in series [2] (vanillin 15 mM); 100% in series [3] (ferulic acid 0 mM); 60% in series [3] (ferulic acid 5 mM). Also, the “Relative activity to degrade phosphoric acid swollen cellulose” value in series [3] (ferulic acid 10 mM) and in [3] (ferulic acid 15 mM) was 50% throughout. In addition, the “Concentration of glucose generated, Celluclast + Wild-type” value is recorded as 12 g/L in series [4], 12 g/L in [5] and 11 g/L in [6]. Moreover, the “Concentration of glucose generated, Culture solution + Wild-type” value in series [7] came to 9 g/L; in series [8], 9 g/L; in series [9], 8 g/L.

B2: EGSh Wild-type: Staphylothermus hellenicus-derived endoglucanase, SEQ ID NO: 19, parent endoglucanase (protein)
chain: MPARTRIACAVILLLVFLALYIAWPVEGSFLKQQPYNELRGRVLGSNIQIPKDHIPYYHIVNGTIYMDDKLIHLFGVSWFGFELPDHIVYGLWARNWKDILKDIKEMGFNAIRLPFCHESITPGTKPVPGRISYSLNPDLRNLTSLEIMEKIISYANELNIFVLLDYHRIGCRYIEPLWYTDNFSEEQYIKDWVFLAQKFGKYPNVIGADIKNEPHDSASWGTGDNKTDFRLFAERVGQAILQVAPHWLIFIEGVQYTHVPEIDGRNPYSCFWGENLMGVKDYPVRLPKDKIVYSPHVYGPSVYNMPYFNDPEFPRNLPKIWELHFGYLKELGYAIVIGEWGGRYVGKDKVWQDAFADWLIQKGIYDFFYWCLNPESGDTGGIFKSDWRTVNQDKLNLIHRIINAASQAQASTISGKHDWKTYLVLIAPTLLPVLILVILVLLIIKRRYTKKQ
modifications: Staphylothermus hellenicus EGSh
For the molecule B2, the Relative activity in series [1] is reported as 100%. Besides, the “Relative activity to degrade phosphoric acid swollen cellulose” value in [2] (vanillin 0 mM) is reported as 100%; in [2] (vanillin 5 mM), 40%; in [2] (vanillin 10 mM), 35%; in series [2] (vanillin 15 mM), 30%; in [3] (ferulic acid 0 mM), 100%; in series [3] (ferulic acid 5 mM), 65%. For the same molecule, the “Relative activity to degrade phosphoric acid swollen cellulose” value was 55% in series [3] (ferulic acid 10 mM) and 50% in series [3] (ferulic acid 15 mM). Besides, the “Concentration of glucose generated, Celluclast + Wild-type” value in series [4] was determined as 12 g/L; in [5], 11 g/L; in series [6], 12 g/L. Also, the figures for the “Concentration of glucose generated, Culture solution + Wild-type” value in series [7], in series [8] and in series [9] were 9 g/L, 8 g/L and 9 g/L, respectively.

B3: EGSh Mutant: mutant EGSh, SEQ ID NO: 20; residue corresponding to 273rd tryptophan substituted with alanine (protein)
chain: MPARTRIACAVILLLVFLALYIAWPVEGSFLKQQPYNELRGRVLGSNIQIPKDHIPYYHIVNGTIYMDDKLIHLFGVSWFGFELPDHIVYGLWARNWKDILKDIKEMGFNAIRLPFCHESITPGTKPVPGRISYSLNPDLRNLTSLEIMEKIISYANELNIFVLLDYHRIGCRYIEPLWYTDNFSEEQYIKDWVFLAQKFGKYPNVIGADIKNEPHDSASWGTGDNKTDFRLFAERVGQAILQVAPHWLIFIEGVQYTHVPEIDGRNPYSCFAGENLMGVKDYPVRLPKDKIVYSPHVYGPSVYNMPYFNDPEFPRNLPKIWELHFGYLKELGYAIVIGEWGGRYVGKDKVWQDAFADWLIQKGIYDFFYWCLNPESGDTGGIFKSDWRTVNQDKLNLIHRIINAASQAQASTISGKHDWKTYLVLIAPTLLPVLILVILVLLIIKRRYTKKQ
modifications: Staphylothermus hellenicus EGSh W273A
notes: residue corresponding to 273rd tryptophan substituted with alanine
On to B3, for which the Relative activity in series [1] is 100%. Besides, the “Relative activity to degrade phosphoric acid swollen cellulose” value turned out to be 100% in [2] (vanillin 0 mM); 90% in series [2] (vanillin 5 mM); 85% in series [2] (vanillin 10 mM); 80% in series [2] (vanillin 15 mM); 100% in [3] (ferulic acid 0 mM); 95% in [3] (ferulic acid 5 mM). Moreover, the figures for the “Relative activity to degrade phosphoric acid swollen cellulose” value in series [3] (ferulic acid 10 mM) and in [3] (ferulic acid 15 mM) were 85% and 80%, respectively. The “Concentration of glucose generated, Celluclast + Mutant” value in [4] was 14 g/L; in [5], 15 g/L; in series [6] it was 15 g/L. Moreover, the entries for the “Concentration of glucose generated, Culture solution + Mutant” value in series [7], in series [8] and in series [9] were 11 g/L, 12 g/L and 12 g/L, respectively.
